Results published in the DeepSol protein solubility set.

Assay: soluble on expression in E. coli; label from the status in PepcDB or PDB records

Row | Sequence | soluble on expression in E. coli
1 | VNCVFITPDKMDGKRISYDYVVQQYEIQRLLQRRPLITLIDICKEITSGIRVKKEYYTDKNGYKIIAPGDIRNEVIYINELKVVQPEVVREKDIINNGDILITASGKSGQVIYVNEVLEGCVVTSDIIKITLRDRDKGIRLYKFLKSSIGQMLLNSIKIGILNKIFVEDVENLLIPEDFDTYQEDCSDDSTVYAEAEKLYRSAENIFYRVFDYKGEKKNLKHFYVTEYLDSHRLDPEYYSNFYTELYRVIHKNFDDVKWEELGELVEIKKADKPEISKNQKVKYFLLADIDPNFSIIKETHEDFYGNLSNRMRYIVRRGEIVTAKGGSATGTKGHATALITEKFDGLVTTDALYNLVPRRINPYYLLFLFKQPIILNQVNMFTKGTLYKLIQRNDFEKIKIPRLESSLEEQIVDKMMNYLSVLQNKF | not soluble
2 | GERQVYRKIRDRASYAFALISVAAVVRMEEGRIATARLAFGGLAHKPWRDPEVEACLEGETPSDDLFDRAADRLLQSARGQGENDFKIPLTRRALTAALREATG | not soluble
3 | DEYARDTKVEWREWGTAPFEDAAESGKPVLLALTVPWSAECRAMDRGTYGEPRIAANINDGFVPVRVDADRNPRVRERYTMGGFPSTVFLTPEGEVITGATFLGPDGFRGILDSVRESWDAQ | not soluble
4 | MSLKPVMIIQFSASEGPGHFGDFLAGEHIPFQVLRMDRSDPLPAEIRDCSGLAMMGGPMSANDDLPWMPTLLALIRDAVAQRVPVIGHCLGGQLLAKAMGGEVTDSPHAEIGWVRAWPQHVPQALEWLGTWDELELFEWHYQTFSIPPGAVHILRSEHCANQAYVLDDLHIGFQCHIEMQAHMVREWCSISPEELKGGAEADEGHHHHHH | not soluble
5 | MSTDAFYSTAFPTIPGTPNLLGYTAYSPQSIFNDSRPASSVNNTPSTSFNSSIHSRNRSIAMLHSISHILSNDDSLGSTTESSTPSTPEIHPSNAPAKKTIPLVLISDTDEECDKKSRKRRIRSKSSKKSRGIRKSRKHEASDYRKKIMLGTFEGRKIVLKLMK | not soluble
6 | MRDPFMEALGLKVLHLAPGEAVVAGEVRADHLNLHGTAHGGFLYALADSAFALASNTRGPAVALSCRMDYFRPLGAGARVEARAVEVNLSRRTATYRVEVVSEGKLVALFTGTVFRLGGDGDDVPAGTGNLAPREA | soluble
7 | GKKLEPIEELTIDVPEEFMGVVMEKLGPRKAELVNMTSAVNGYTRLEFKIPSRGLIGFRNEFMTDTKGNGIMNSTLIDYEPFRGDIPERSRGSIVVFETGVSVVYGLYSAQERGRLFVGAGVDVYEGMV | not soluble
8 | MKKIGIIGGTTPESTLYYYKKYIEISREKFEKYFYPELIIYSINFKEFFQNPEGWEGRKKILINAAKALERAGAELIAFAANTPHLVFDDVQREVNVPMVSIIDAVAEEILKRGVRKVLLLGTKTTMTADFYIKTLEEKGLEVVVPNDEEKEELNRIIFEELAFGNLKNKEWIVRLIEKYRESEGIEGVILGCTELPLAIKQGDVSVEVFDSAEIHMRKLIELASE | soluble
9 | MSFKDYEYKRPNIEELKEKFTVALEKFDNAKTVEEQKQVIHSINEIRNDFGTMGNLCYIRHSVDTTDAFYKEEQDFFDEFSPVVQGYGTKYYNALIHSPFREELEAYYGKQLFALAECDLKTYSDEVVKDLQLENKLSSQYTQLLASAKIDFAGEERTLSQLIPFMQGKERSERKAASEAYYGFLAENEEELDRIYDELVKVRTKIAKSLGFKNFVELGYARMYRTDYNAEMVANYRQQVLDYIVPVTTELRKRQQARIGVEKLAYYDENFEFPTGNPTPKGDADWIVNHGKTMYKELSAETDEFFNFMLDNDLLDLVAKKGKAGGGYCTYIENYKAPFIFSNFNGTSGDIDVLTHEAGHAFQVYESRKFEIPEYNWPTYEACEIHSMSMEFFTWPWMKLFFEEDADKYYFSHLSSALLFLPYGVSVDEYQHYVYENPEASPEERKTAWRNIEKKYLPHRDYEDNDYLERGGFWQRQGHIYSSPFYYIDYTLAQICALQFWKRARDNRQEAWEDYVNLCQQGGSKSFLELVEVANLTSPFAEGCVKSVITEIEAWLHAIDDTKL | not soluble
10 | MGHHHHHHSHSKKPYIVTIACTKGGSAKSTNAANIGAFCADHGLRTLLIDTDTQPTLSSYYSLAKTAPGGIYEFLLQRDVEPSHIVSQTSIKNLDLIQSNDPSNNVSHMLRNAPDGSIRFSHLIKSINNYDVIVIDTRGTRDITVDMSVLAADILFCPILPQILSAKEFIRGTIGMYQDLQTFESFGFKLPPLKAIANGVDNTNDVKFVMQKLHTLFANTFDESKTLLDFSIPYHVAYREAVTYALPVYRHSAVEYPVMQQLCC | not soluble
11 | KLDKIDNKNRRIRKKLFLGEFAILGFEISCETDINDFDRYDAFVDDFIDYIDTLGLCFGGGGLELFEGFLCSTERYGSATEEQKAQVVAWLEARPEVKSAKAGDLLDANY | not soluble
12 | MKIVEVKHPLVKHKLGLMREQDISTKRFRELASEVGSLLTYEATADLETEKVTIEGWNGPVEIDQIKGKKITVVPILRAGLGMMDGVLENVPSARISVVGMYRNEETLEPVPYFQKLVSNIDERMALIVDPMLATGGSVIATIDLLKKAGCSSIKVLVLVAAPEGIAALEKAHPDVELYTASIDQGLNEHGYIIPGLGDAGDKIFGTK | soluble
13 | MGRGVYTLALRGLAPLIWLWMWRRARRAGGQWELFAPARFGRAGARAPAPLAAPVWVHAVSLGETRAAQPLVQALLERGLPVLLTHTTATGRAEGERLFGAAIGRGQLQQAWLPYDFPGATRRFLARHAPRCGLLIEREVWPNLLAAARAQGVPMALVSARFSASSLRQAGWLGQALREALAGLGRVLAQTDEDGARLCQAGANAYTVTGSLKFDVALPEAQLRVGHAWAGATGRPVIALASTREGEDAMFIEAIGALQAHRAATPRPLILLIPRHPQRFDEAAAQLQAAGLAYARRSAGSGEPGPHIDVLLGDTLGEMPFYYAAADVAIVGGSFARLGGQNLIEACAAGTPVIVGPHTFNFKDAARDAIAAGAALRAPDARTALDWALQLLAEPARRQAMSEAARAWTAAHAGATRRTLDALEDWLAPRLEHHHHHH | soluble
14 | MTTEYLDEERDLPLPRQKKGIDHTQTEPIRGFFGVKDMFAFENVGFTRSSEGKRYLVCGECEQGPVGFVDPVTEMNYVSPERLDVLPDVAAAAVEAGK | not soluble
15 | MAIDFHLSASQKGTYQAARSLARNLLMPARQTYLQHPPNSPLRFQSTQPTYAAAVSAGILKGQISPAHGGTGGTLIESAILVEECYSVEPSAALTIFATGLGLTPINLAAGPQHAEFLAPFLSGEGSPLASLVFSEPGGVANALEKGAPGFQTTARLEGDEWVINGEKMWATNCAGWDFKGCDLACVVCRDATTPLEEGQDPENKVMIILVTRADLDRNGEGSFEVLRHVATPGHTSVSGPHVRYTNVRVPTKNVLCPAGQGAKVAFGAFDGSAVLVGAMGVGLMRAAFDAALKFAKEDNRGGAVPLLERQAFADLLSGVKIQTEAARALTWKAAHAMENGPGDYDARRELALAAKVFCSEAAVKACTDVINAVGISAYDLQRPFSDLLNTAVVLPIFDGGNVGIRRRHLQQLMLKPTYDAWSSTYGSFPGSHHHHHH | soluble
16 | MCLVDFGLRFNHKGRHYFKAANGEDIALSLSIGAAMFNGHPDYERLIQIADEALYIAKRRGRNRVELCKASL | not soluble
17 | MCGIVGYIGNNEKKQIILNGLKELEYRGYDSAGMAVMQEGELSFFKAVGKLENLANKCTDFESQGYGFAIGHTRWATHGKPTEINAHPHLGQYSCVIHNGIIENYKEIKDKLEKEGVSFLSQTDTEVIVQLFEFYARNLGVFEAWQKTIKELRGAFATLLVTKKDPNHVYFAKNAAPLIIGKNANKEWYFSSGDAPLIGSCDEVMYLEDLSLGYASKDELVVYENDILKSLCFSKLSGDKAYAKKDGFRFFMEKEIYEQSRVMSEVLMGRIQGDEVVFDELNNEDLSQVDEITLCACGTSYHAAMASAYLFERIAKVKAKVEIASEFRYREAIIKKDSLFIVISQSGETADTLEALKIAKEQGAKTFAICNVDNSNIVRLAHLSLLTRAGIEKGVASTKAFATQVLTLWMLAIFMAQKRNLNVSAEIKALLHTPNCVSVKQALHEKIHRLSKRYLDGHGFFFIGRDVFYPLALEGALKLKELSYLHAEGYPAGEMKHGPIALADSKLYTIALMPKHMLYEKTKSNVEELIARDSTVLSISPLEFDLSDDFIKTNEQDHYMCEFFEMMVITQLLAMEISIRLGNDVDMPRNLAKSVTVE | not soluble
18 | MGSDKIHHHHHHMCPLMAENHEVIEEGNSSELPLSAEDAKKLTELAENVLQGWDVQAEKIDVIQGNQMALVWKVHTDSGAVCLKRIHRPEKKALFSIFAQDYLAKKGMNVPGILPNKKGSLYSKHGSFLFVVYDWIEGRPFELTVKQDLEFIMKGLADFHTASVGYQPPNGVPIFTKLGRWPNHYTKRCKQMETWKLMAEAEAAAPFSQLYLQEIDGFIEDGLRIKDRLLQSTYVPWTEQLKKSPNLCHQDYGTGNTLLGENEQIWVIDLDTVSFDLPIRDLRKMIIPLLDTTGVWDDETFNVMLNAYESRAPLTEEQKQVMFIDMLFPYELYDVIREKYVRKSALPKEELESAFEYERIKANALRQLI | not soluble
19 | MGSDKIHHHHHHMRDQAESLRRMVDGVMEQGRGQGKVIAVVSGKGGVGKSNVSLNFALTLSRQNQKVALIDLDLGMGNLDILMGLSPSYHIIDMIKRELTIWDIAEQGPEGITYIAGGSGLSELVELNERQMERFFQQLESLGAIYDYIILDMGAGATAESLRFILSAHEIFVVTTPEPTSITDAYAMVKYICKEPIENPEILLIVNRAESKREGEQTAANFKRVVSHFLKKDIHSLGYLPQDSHVVKAVKAQAPFVLHAPQAKASMAMGKLVHTYLGHRVDRGAPSYQSFMKKIRKWFR | not soluble
20 | MSLSTQTVTIKSLGAQGDGIAHCPDGPVYVPFALPGETVAIAKVKDQGTVMSITEASADRRDPVCRHFGPEGINGTCGGCSLQHLADQPYHAFKRELVVSALRSKGLTPPVDDLVICRPGERRRAVFAARKTEKGLLLGFSQANSHHIVAIEECPVTSPGIVSRFDAIRAIGLSMVANAEPFRITVLETLSGLDISVEGIKSVNDKQRRTLTETVLAMRGIARVSLSGEILIEPQKPIIEFGGIPVSPPAGGFTQATKQAEDAMAELMLAHVGKSKRIADLFCGSGTFALRLARIGRVHAVEAEDKALKALDFAARNTQGLKPVSVEKRDLFRRPLMTSELKNYDAVVFDPPRAGAEVQCKELARSTVKKIVAVSCNPLTLARDLAILTEGGYRVTRVTPVDQFLWSPHVEAVAVLEKEGHHHHHH | soluble
21 | MAGGLIRGKLIAIIGDEDTVTGFLLGGIGELNKNRKPNFLVVEKETSVTEIEETFRSFLNRDDIGIILINQFIAEMIRHAIDAHTISIPAVLEIPSKEHPYDATKDSILRRAKGMFTVDDLR | soluble
